B1: OR4K15 (parent)
chain: GUUAACGGUCAUAGGCCAUGGAAACUAGGAGCACCAUUUCGCUGCCAGUGAAGAAAUGAACAAAGAAAAUCUGGGCCAGGCAGGCAUCAAAAGAAAUAGUCUUGCGCUCAACCAGAAAGUCUGUAAUCAUUUUAAGGGUA

Variants of: B1
Test: self-cleavage, relative activity (ratio to wild type); higher = more cleavage; in vitro, sequencing; the parent is a self-cleaving ribozyme

Compared with A95G C109A, A94G U108C is lower in self-cleavage: 0.78 for the first, 0.01 for the second.

Going from A94G U108G to A92G A126G, the self-cleavage rises from 0.07 to 1.18.

First: A92G A126U
Second: A92G A111G
The self-cleavage of the first is higher: 0.78 for the first, 0.02 for the second.

First: A94G U131A
Second: A94G U131C
The self-cleavage of the first is higher: 0.74 for the first, 0.66 for the second.

Compared with A96G A117G, A94G U102C is lower in self-cleavage: 2.13 for the first, 1.87 for the second.

Going from A95C A140G to A94G C107G, the self-cleavage falls from 0.98 to 0.01.

Compared with A94U U124C, A95G G123A is lower in self-cleavage: 1.66 for the first, 1.22 for the second.

First: A95G U127C
Second: A94G A98U
The self-cleavage of the first is lower: 1.56 for the first, 2.36 for the second.

Compared with A95G U108C, A96G A114U is higher in self-cleavage: 0.01 for the first, 0.07 for the second.

Compared with A94U A96G, A94C A126G is lower in self-cleavage: 1.29 for the first, 0.79 for the second.

Compared with A96C A111G, A94U U108C is lower in self-cleavage: 0.03 for the first, 0.02 for the second.

Going from A96C A140U to A92G U132C, the self-cleavage rises from 1.14 to 1.35.

First: A95G U131C
Second: A92U U132C
The self-cleavage of the first is higher: 1.46 for the first, 0.8 for the second.

Compared with A94U U97G, A94U U97C is lower in self-cleavage: 1.52 for the first, 1.31 for the second.

First: A95G U100A
Second: A95G U100C
The self-cleavage of the first is lower: 1.26 for the first, 2.52 for the second.

First: A92G A140G
Second: A95G U102C
The self-cleavage of the first is lower: 1.69 for the first, 2.62 for the second.

Going from A95G U102A to A92G C113U, the self-cleavage falls from 2.24 to 0.14.

Going from A92G A116G to A92G A116C, the self-cleavage falls from 0.44 to 0.09.

Compared with A92G A116U, A94G A140G is higher in self-cleavage: 0.2 for the first, 1.53 for the second.

Going from A95G G115A to A95C G137U, the self-cleavage rises from 0.19 to 1.17.

Compared with A92U G104A, A92G U133C is higher in self-cleavage: 0.01 for the first, 1.59 for the second.

Compared with A94G A114U, A94G A114C is higher in self-cleavage: 0.04 for the first, 0.05 for the second.

First: A95C U103C
Second: A95C
The self-cleavage of the first is higher: 1.28 for the first, 1.06 for the second.

First: A95G
Second: A95U
The self-cleavage of the first is higher: 1.85 for the first, 1.65 for the second.

First: A92G A129C
Second: A92G A129U
The self-cleavage of the first is lower: 0.59 for the first, 1.16 for the second.

First: A94C U131C
Second: A94G A110G
The self-cleavage of the first is higher: 0.24 for the first, 0.13 for the second.

First: A96G A134G
Second: A95U A126G
The self-cleavage of the first is higher: 1.81 for the first, 1.55 for the second.

Going from A94U A117U to A94U A117G, the self-cleavage rises from 0.82 to 1.95.

First: A96C C109U
Second: A92U
The self-cleavage of the first is lower: 0.21 for the first, 1.71 for the second.

Compared with A92G U124C, A95G C107U is lower in self-cleavage: 1 for the first, 0.01 for the second.

Compared with A95G C107A, A92G A134G is higher in self-cleavage: 0.02 for the first, 0.98 for the second.

Compared with A96G A118G, A92G U122C is lower in self-cleavage: 1.4 for the first, 1.19 for the second.

Compared with A95U A118G, A95U A118U is lower in self-cleavage: 1.41 for the first, 0.6 for the second.

First: A95G A125U
Second: A94U U130C
The self-cleavage of the first is lower: 0.96 for the first, 1.01 for the second.

Compared with A95U A117U, A92U U120C is higher in self-cleavage: 0.55 for the first, 1 for the second.

Going from G93A to G93U, the self-cleavage falls from 2.17 to 1.83.

Compared with A94G A117U, A94G A125G is higher in self-cleavage: 0.67 for the first, 0.75 for the second.

Compared with G93A A135G, A94G C113U is lower in self-cleavage: 2.27 for the first, 0.03 for the second.

First: A95G A98G
Second: A94G A95G
The self-cleavage of the first is lower: 1.49 for the first, 1.9 for the second.

First: A94C U103C
Second: A95C U124C
The self-cleavage of the first is higher: 0.38 for the first, 0.32 for the second.

First: A95G A116G
Second: A95G A116U
The self-cleavage of the first is higher: 1.88 for the first, 0.45 for the second.

First: A92U A94G
Second: A92G A125G
The self-cleavage of the first is higher: 1.76 for the first, 0.79 for the second.

Compared with A92G A125U, A94G U133C is higher in self-cleavage: 1.59 for the first, 2.11 for the second.

Compared with A94U A135U, A95G U103A is lower in self-cleavage: 1.75 for the first, 1.55 for the second.

Going from A92U C112U to A96G A129U, the self-cleavage rises from 0.01 to 1.08.

Going from A96G A129G to A94G A135G, the self-cleavage falls from 1.11 to 0.43.

First: A94G U97A
Second: A92G U130C
The self-cleavage of the first is higher: 2.02 for the first, 0.3 for the second.

Going from A95U G104A to G93U A135G, the self-cleavage rises from 0.05 to 1.96.

Compared with A92G A114C, A96C is higher in self-cleavage: 0.04 for the first, 0.82 for the second.

Going from A96G to G93A U108A, the self-cleavage falls from 1.37 to 0.02.

First: A92U A125G
Second: A95G G137A
The self-cleavage of the first is lower: 0.58 for the first, 0.66 for the second.

Going from A95G G137U to A94C A116C, the self-cleavage falls from 2.07 to 0.25.

Compared with A96G A111C, A92G U127A is higher in self-cleavage: 0.01 for the first, 2.33 for the second.

Going from A92U A117G to A92U A126G, the self-cleavage falls from 2.08 to 1.18.

Compared with A95G A126U, A94G U122C is lower in self-cleavage: 1.42 for the first, 1.21 for the second.

First: A96C A118U
Second: A92G U139A
The self-cleavage of the first is lower: 0.32 for the first, 2.12 for the second.

Compared with A92G U139G, A92U A116G is lower in self-cleavage: 1.3 for the first, 0.99 for the second.

Going from A95G G136U to A95G A129G, the self-cleavage falls from 2.65 to 2.42.

First: A92G A135C
Second: A92G A135G
The self-cleavage of the first is lower: 0.84 for the first, 1.48 for the second.

Compared with A94U U120C, A95G A96C is lower in self-cleavage: 1.1 for the first, 0.77 for the second.

Going from A95G A96G to A94U U102C, the self-cleavage rises from 1.25 to 1.36.

Going from A95G A114G to A95G A114C, the self-cleavage falls from 1.17 to 0.06.

First: A92G A96U
Second: A92G A96G
The self-cleavage of the first is higher: 1.84 for the first, 0.99 for the second.

Going from A94G U127C to A94G U127A, the self-cleavage rises from 1.04 to 2.55.

First: A94G U127G
Second: A96C U122A
The self-cleavage of the first is higher: 1.87 for the first, 0.42 for the second.

First: A95G G99A
Second: G93A A95G
The self-cleavage of the first is lower: 1.52 for the first, 2.26 for the second.

Going from A96G A110G to A96G A110U, the self-cleavage rises from 0.12 to 1.53.

Going from A96G A116G to A95G U132C, the self-cleavage rises from 0.98 to 2.35.

Compared with A92G C105U, A95G U130C is higher in self-cleavage: 0.08 for the first, 1.89 for the second.

First: G93U G123A
Second: A94G U130G
The self-cleavage of the first is lower: 0.77 for the first, 1.09 for the second.

Going from A92U A118U to A92G U103A, the self-cleavage rises from 0.74 to 0.8.

Compared with A94G A134G, A95U U103A is lower in self-cleavage: 1.03 for the first, 0.6 for the second.

Compared with A95G A140U, A95G A140G is lower in self-cleavage: 2.09 for the first, 1.73 for the second.

Compared with A95G A118G, A95G A118U is higher in self-cleavage: 0.75 for the first, 1.09 for the second.

Going from A92G U131A to A92U U127A, the self-cleavage rises from 1.33 to 1.77.

First: A92G G106U
Second: A92G G106A
The self-cleavage of the first is lower: 0.01 for the first, 0.02 for the second.

First: A95G C105A
Second: A92U A129U
The self-cleavage of the first is lower: 0.09 for the first, 1 for the second.

First: A92U A129G
Second: A95G U124C
The self-cleavage of the first is lower: 1.13 for the first, 1.85 for the second.

Going from A95G U124A to A94G A111U, the self-cleavage falls from 0.8 to 0.06.

Going from A96G A126G to A95G U122A, the self-cleavage rises from 1.01 to 1.78.

First: A95G U122C
Second: A95C A116G
The self-cleavage of the first is higher: 1.2 for the first, 0.74 for the second.

First: A92G U108G
Second: A92G A118U
The self-cleavage of the first is lower: 0.02 for the first, 0.78 for the second.

Compared with A92U A96G, G93A U102A is higher in self-cleavage: 1.85 for the first, 2.2 for the second.

A92G A110C gave a self-cleavage of 0.26.
